Assay [1] has as its target full-length VAMP2 (mouse His6-SUMO-VAMP2, residues 1-116) (mouse) (UniProt P63044).
A further assay has as its target Syntaxin1 (rat) (UniProt P32851).

Sequence of full-length VAMP2 (mouse His6-SUMO-VAMP2, residues 1-116) (mouse) (P63044 whole entry, the tested form may be a part): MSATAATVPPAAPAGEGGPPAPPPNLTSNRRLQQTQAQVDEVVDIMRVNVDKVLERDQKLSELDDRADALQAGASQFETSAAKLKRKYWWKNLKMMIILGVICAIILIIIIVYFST
Sequence of Syntaxin1 (rat) (P32851 whole entry): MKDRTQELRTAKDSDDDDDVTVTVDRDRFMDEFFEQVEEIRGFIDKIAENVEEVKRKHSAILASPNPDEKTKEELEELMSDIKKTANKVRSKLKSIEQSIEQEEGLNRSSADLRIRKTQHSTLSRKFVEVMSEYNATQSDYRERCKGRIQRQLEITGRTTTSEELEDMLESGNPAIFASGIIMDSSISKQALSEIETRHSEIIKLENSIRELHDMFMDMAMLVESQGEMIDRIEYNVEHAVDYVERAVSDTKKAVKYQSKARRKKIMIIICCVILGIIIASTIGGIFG

In assay [1], “Munc13 D1358K (from UniProt Q62768 529-1407; Q62768 1453-1735) (domain or fragment)” yielded a single-vesicle fusion assay with 500 nM DHG: fraction of immobile clamped vesicles that fused upon 100 µM Ca2+ (wild type ~90%) of 20%. In the assay with Syntaxin1 (rat), “Munc13 N1128A/F1131A (from UniProt Q62768 529-1407; Q62768 1453-1735) (domain or fragment)” displayed a single-vesicle fusion assay with 500 nM DHG: fraction of immobile clamped vesicles that fused upon 100 µM Ca2+ (wild type ~90%) of 20%.
